Reference: patent US20240010747A1, “ANTI-MRP4 (ENCODED BY ABCC4 GENE) ANTIBODIES AND USES THEREOF” (Kenjockety Biotechnology, Inc., priority 2020, published 2024)

What was measured:
human ABCC4 = target: T1, human ABCC4 (human, UniProt O15439 1-1325); assay: FACS, C6 cells stably expressing human ABCC4; + = MFI>3x background
T1 construct: Expressed on murine C6 cells stably transfected with human ABCC4 cDNA with C-terminal FLAG tag; also called MRP4; Multidrug resistance protein 4; not shown: C-terminal fused FLAG tag
T1 sequence: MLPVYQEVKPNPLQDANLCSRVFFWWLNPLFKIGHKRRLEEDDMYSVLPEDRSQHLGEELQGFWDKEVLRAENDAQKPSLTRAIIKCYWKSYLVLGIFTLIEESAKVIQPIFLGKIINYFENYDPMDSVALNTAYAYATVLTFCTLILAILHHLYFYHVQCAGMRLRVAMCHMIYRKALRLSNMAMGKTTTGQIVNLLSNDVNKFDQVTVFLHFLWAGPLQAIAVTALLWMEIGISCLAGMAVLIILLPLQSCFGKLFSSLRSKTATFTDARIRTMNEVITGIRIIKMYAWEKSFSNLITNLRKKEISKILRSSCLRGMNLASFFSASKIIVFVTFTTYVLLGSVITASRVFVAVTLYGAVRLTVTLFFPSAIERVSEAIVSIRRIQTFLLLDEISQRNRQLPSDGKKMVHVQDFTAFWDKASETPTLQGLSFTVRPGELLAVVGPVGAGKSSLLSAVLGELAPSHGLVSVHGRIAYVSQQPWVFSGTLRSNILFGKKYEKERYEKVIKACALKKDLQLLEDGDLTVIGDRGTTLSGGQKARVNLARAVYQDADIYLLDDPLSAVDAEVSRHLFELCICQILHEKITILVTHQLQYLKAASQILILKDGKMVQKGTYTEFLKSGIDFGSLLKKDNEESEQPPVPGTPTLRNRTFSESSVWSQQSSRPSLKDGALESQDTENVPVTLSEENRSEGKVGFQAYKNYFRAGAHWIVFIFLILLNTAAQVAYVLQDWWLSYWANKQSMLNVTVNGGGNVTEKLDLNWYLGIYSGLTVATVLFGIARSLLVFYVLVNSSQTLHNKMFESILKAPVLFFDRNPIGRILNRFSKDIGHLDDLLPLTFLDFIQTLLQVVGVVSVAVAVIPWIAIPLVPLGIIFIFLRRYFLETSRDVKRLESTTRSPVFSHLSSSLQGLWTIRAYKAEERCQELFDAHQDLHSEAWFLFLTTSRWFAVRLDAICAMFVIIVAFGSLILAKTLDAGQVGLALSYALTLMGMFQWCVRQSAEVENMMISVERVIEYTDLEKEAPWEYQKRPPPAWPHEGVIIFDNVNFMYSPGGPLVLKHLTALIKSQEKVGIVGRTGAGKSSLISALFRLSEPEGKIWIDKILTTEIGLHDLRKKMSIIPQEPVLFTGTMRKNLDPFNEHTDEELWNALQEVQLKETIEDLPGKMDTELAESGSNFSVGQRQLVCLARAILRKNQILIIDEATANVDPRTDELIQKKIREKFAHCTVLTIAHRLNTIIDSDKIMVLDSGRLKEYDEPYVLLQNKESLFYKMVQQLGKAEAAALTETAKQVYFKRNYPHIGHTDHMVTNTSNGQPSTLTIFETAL
Method: (§1) Antibody binding to cells was evaluated by flow cytometry. Murine C6 cells stably transfected to express human or cynomolgus ABCC4 were washed once in flow cytometry buffer (PBS+2% FBS+0.02% sodium azide), resuspended at 2×10\hat{ }6 cells/mL in flow cytometry buffer, and dispensed into 96-well microtiter plates at 0.1 mL/well. Recombinant antibodies were added to cells at 5 ug/mL for initial binding confirmation, or serially diluted from 100 ug/mL in flow cytometry buffer. After incubating cells on ice for 30 min, cells were washed twice with flow cytometry buffer. Bound antibody was detected with PE-labeled F(ab′)₂ fragment goat anti-human IgG (Jackson ImmunoResearch) and evaluated on an Attune N×T flow cytometer. EC50 is calculated to be the concentration of antibody that gives half maximal response.

cynomolgus ABCC4 = target: T2, cynomolgus ABCC4 (cynomolgus, UniProt A0A2K5W0Z4 1-1325); assay: FACS, different C6.cC4 cell line stably expressing cynomolgus ABCC4
T2 construct: whole, on cells; Expressed on murine C6 cells stably transfected with cynomolgus ABCC4 cDNA with C-terminal FLAG tag; not shown: C-terminal fused FLAG tag
T2 sequence: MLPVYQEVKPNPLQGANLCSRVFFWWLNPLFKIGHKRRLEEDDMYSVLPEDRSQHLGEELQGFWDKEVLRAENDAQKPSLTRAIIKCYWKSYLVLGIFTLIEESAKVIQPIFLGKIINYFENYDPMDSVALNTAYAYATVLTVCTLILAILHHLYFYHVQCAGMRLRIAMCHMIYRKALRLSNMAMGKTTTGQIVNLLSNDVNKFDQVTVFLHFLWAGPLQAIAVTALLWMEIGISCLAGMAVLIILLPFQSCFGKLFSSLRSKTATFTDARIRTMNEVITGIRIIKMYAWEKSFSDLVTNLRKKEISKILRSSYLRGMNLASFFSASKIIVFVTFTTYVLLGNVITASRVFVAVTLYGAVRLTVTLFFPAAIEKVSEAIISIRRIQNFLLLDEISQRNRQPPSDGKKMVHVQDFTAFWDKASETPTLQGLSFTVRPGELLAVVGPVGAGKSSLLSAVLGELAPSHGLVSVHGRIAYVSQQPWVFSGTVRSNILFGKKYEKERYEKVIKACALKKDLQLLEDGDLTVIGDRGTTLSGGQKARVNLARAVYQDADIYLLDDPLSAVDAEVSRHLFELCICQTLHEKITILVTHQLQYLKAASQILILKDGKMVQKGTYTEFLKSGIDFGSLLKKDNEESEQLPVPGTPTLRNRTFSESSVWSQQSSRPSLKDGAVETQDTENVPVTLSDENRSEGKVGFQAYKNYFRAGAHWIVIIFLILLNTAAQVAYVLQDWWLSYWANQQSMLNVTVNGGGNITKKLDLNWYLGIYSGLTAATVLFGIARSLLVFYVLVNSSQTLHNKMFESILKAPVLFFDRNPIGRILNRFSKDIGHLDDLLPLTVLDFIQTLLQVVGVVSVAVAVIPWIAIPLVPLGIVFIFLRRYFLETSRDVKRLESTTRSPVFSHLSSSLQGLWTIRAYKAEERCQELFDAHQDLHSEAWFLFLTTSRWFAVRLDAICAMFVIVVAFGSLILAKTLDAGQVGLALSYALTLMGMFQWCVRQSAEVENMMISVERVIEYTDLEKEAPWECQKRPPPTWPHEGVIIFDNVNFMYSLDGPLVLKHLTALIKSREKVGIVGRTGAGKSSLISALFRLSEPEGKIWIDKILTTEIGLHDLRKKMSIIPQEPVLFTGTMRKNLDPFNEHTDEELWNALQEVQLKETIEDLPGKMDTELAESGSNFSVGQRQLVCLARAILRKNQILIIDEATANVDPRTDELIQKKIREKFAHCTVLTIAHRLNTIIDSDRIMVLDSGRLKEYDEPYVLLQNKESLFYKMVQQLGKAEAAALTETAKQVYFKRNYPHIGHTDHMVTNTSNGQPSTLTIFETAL
Method: as §1

| Binder | binding result (human ABCC4) | binding result (cynomolgus ABCC4) |
| --- | --- | --- |
| C4.1059 (antibody, V domains shown) VH: QVQLLQSGAALVKPGASVKMSCKPSGYTFTDYWVSWVKQSHGKSLEWIGEIYPNNGATNFNEKFKGKATLTVDKSTSTAYMELSRLTSEDSAIYYCPSRKYGYNWNFDYWGQGTMVTVSS VL: DIVLTQSPALAVSLGQRATISCWASQSVSISRYNLMHWYQQKPGQQPKLLIYRASNLASGIPARFSGSGSGTDFTLTINPVQADDIATYYCQQSGESPWTFGGGTKLELK | binds | no binding (tested: Rmax (MFI) below background level) |
| C4.1139 (antibody, V domains shown) VH: EVQLVESDGGLVQPGRSLKLSCAASGFTFSDYYMAWVRQAPTKGLYWVASISYDGSTTYYRDSVKGRFTISRDNAKSTLYLQMGSLRSEDTATYYCARLSIRYKGVMDAWGRGASVTVSS VL: DVVMTQSPSNLAASPGESVSINCKASKSIGKFLAWYQQKPGRPNKLLIYSGSTLQSGTPSRFSGSGSGTDFTLTIRNLEPGDFGLYYCQHHIEYPPTFGPGTKLELK | binds | no binding (tested: Rmax (MFI) below background level) |
| C4.1148 (antibody, V domains shown) VH: EVQLVESDGGLVQPGRSLKLSCAASGFTFSDYYMAWVRQAPPKGLEWVATISYDAFTTYYRDSVKGRFTISRDNAKTILFLQMDSLRSEDTATYYCIRLSTRYKGVMDAWGHGASVTVSS VL: DIQMTQSPSNLAASPGESVSINCKASETIYKYLAWYQQKPGRTNKLLIYSGSTLQSGTPSRFSGSGSGTDFTLTIRNLEPEDFGRYYCQHHVEYPPTFGAGTKLELK | binds | no binding (tested: Rmax (MFI) below background level) |
